This note sets out measurements from publication PMC9949068 (bioRxiv, 2023).

The data set “cryo-EM structure” deals with the molecule itself. The experiment in a line: cryo-EM structure.
The data set “negative stain EM” concerns the molecule itself. Briefly: negative stain EM.

Positions count from the first letter of the chain named. Names may count otherwise.

B1: human GLS2 (K253A), residues 38-602 (enzyme)
chain: HHLSEAAAQGRETPHSHQPQHQDHDSSESGMLSRLGDLLFYTIAEGQERIPIHKFTTALKATGLQTSDPRLRDCMSEMHRVVQESSSGGLLDRDLFRKCVSSNIVLLTQAFRKKFVIPDFEEFTGHVDRIFEDVKELTGGKVAAYIPQLAKSNPDLWGVSLCTVDGQRHSVGHTKIPFCLQSCVKPLTYAISISTLGTDYVHKFVGKEPSGLRYNALSLNEEGIPHNPMVNAGAIVVSSLIKMDCNKAEKFDFVLQYLNKMAGNEYMGFSNATFQSEKETGDRNYAIGYYLKEKKCFPKGVDMMAALDLYFQLCSVEVTCESGSVMAATLANGGICPITGESVLSAEAVRNTLSLMHSCGMYDFSGQFAFHVGLPAKSAVSGAILLVVPNVMGMMCLSPPLDKLGNSHRGTSFCQKLVSLFNFHNYDNLRHCARKLDPRREGAEIRNKTVVNLLFAAYSGDVSALRRFALSAMDMEQKDYDSRTALHVAAAEGHIEVVKFLIEACKVNPFAKDRWGNIPLDDAVQFNHLEVVKLLQDYQDSYTLSETQAEAAAEALSKENLESMV
As for B1, the binding result in “cryo-EM structure” is “binds”.

B2: human GLS2 (N308A), residues 38-602 (enzyme)
chain: B1 chain with A216K, N271A
In the case of B2, in “negative stain EM”, the binding result is given as “binds”.
